One block for each binder: values may come before it. Numbered stars: 1 amine (or outer) side, 2 acyl side, 3 side chain; on linkers, the order of the positions; unused ones are H or OH. Bridge positions count the residues as written; N and C are the ends. Square brackets hold non-standard residues; d marks the D form. Primed or numbered codes have the meaning given here. Side chains are listed from the residue outwards. Ends that are not written are not given here. Ebes = 2,2'-ethylenedioxy bis(ethylamine) monosuccinamide; N(CH2CH2CO)Gly = O=C(CN(CCC(=O)[*:3])[*:1])[*:2]; Pro(5R-Ph) = O=C(O)[C@@H]1CC[C@H](c2ccccc2)N1; dAla(4-thiazolyl) = N[C@H](Cc1cscn1)C(=O)O; dCit = NC(=O)NCCC[C@@H](N)C(=O)O; Suc = O=C(CCC(=O)[*:2])[*:1]; Ebes″ = not defined here
Assays:
αvβ3 integrin [1] = target: T1, αvβ3 integrin (human, UniProt P06756 31-1048; P05106 27-788); experiment: flow cytometry, competition with FITC-Echistatin on αvβ3-K562 cells; ++ = IC50 1-10 µM
T1 construct: whole, on cells; Same entry used for αvβ3-K562, U-87 MG and A375M cells; also called αvβ3-K562; αvβ3 transfected K562 cells

αvβ3 integrin [2] = target: T1, αvβ3 integrin; experiment: flow cytometry, competition with FITC-Echistatin on αvβ3-K562 cells; +++ = IC50 <1 µM
αvβ3 integrin [3] = target: T1, αvβ3 integrin; experiment: flow cytometry, competition with biotinylated LXW7 on αvβ3-K562 cells (internal reference)
αvβ3 integrin [4] = target: T1, αvβ3 integrin; experiment: flow cytometry, competition with FITC-Echistatin on αvβ3-K562 cells
αvβ3 integrin [5] = target: T1, αvβ3 integrin; experiment: flow cytometry, saturation binding of LXW7-Bio on U-87 MG cells
αvβ3 integrin [6] = target: T1, αvβ3 integrin; experiment: flow cytometry, saturation binding of LXW7-Bio on U-87 MG cells, streptavidin-PE, nonspecific binding with 100 µM LXW7 subtracted
αvβ3 integrin [7] = target: T1, αvβ3 integrin; experiment: flow cytometry, saturation binding of LXW7-Bio on αvβ3-K562 cells
αvβ3 integrin [8] = target: T1, αvβ3 integrin; experiment: flow cytometry, saturation binding of LXW7-Bio on αvβ3-K562 cells, streptavidin-PE, nonspecific binding with 100 µM LXW7 subtracted
αvβ3 integrin [9] = target: T1, αvβ3 integrin; experiment: flow cytometry, saturation binding of LXW7-Bio on A375M cells
αvβ3 integrin [10] = target: T1, αvβ3 integrin; experiment: flow cytometry, saturation binding of LXW7-Bio on A375M cells, streptavidin-PE, nonspecific binding with 100 µM LXW7 subtracted
αvβ3 integrin [11] = target: T1, αvβ3 integrin; experiment: flow cytometry, competition with biotinylated LXW7 on αvβ3-K562 cells; + = IC50 >10 µM
[12] = target: T2, αvβ3 integrin (human), P06756; experiment: flow cytometry, competition with FITC-Echistatin on αvβ3-K562 cells; settings: remark: other sources report otherwise
T2 chain 1: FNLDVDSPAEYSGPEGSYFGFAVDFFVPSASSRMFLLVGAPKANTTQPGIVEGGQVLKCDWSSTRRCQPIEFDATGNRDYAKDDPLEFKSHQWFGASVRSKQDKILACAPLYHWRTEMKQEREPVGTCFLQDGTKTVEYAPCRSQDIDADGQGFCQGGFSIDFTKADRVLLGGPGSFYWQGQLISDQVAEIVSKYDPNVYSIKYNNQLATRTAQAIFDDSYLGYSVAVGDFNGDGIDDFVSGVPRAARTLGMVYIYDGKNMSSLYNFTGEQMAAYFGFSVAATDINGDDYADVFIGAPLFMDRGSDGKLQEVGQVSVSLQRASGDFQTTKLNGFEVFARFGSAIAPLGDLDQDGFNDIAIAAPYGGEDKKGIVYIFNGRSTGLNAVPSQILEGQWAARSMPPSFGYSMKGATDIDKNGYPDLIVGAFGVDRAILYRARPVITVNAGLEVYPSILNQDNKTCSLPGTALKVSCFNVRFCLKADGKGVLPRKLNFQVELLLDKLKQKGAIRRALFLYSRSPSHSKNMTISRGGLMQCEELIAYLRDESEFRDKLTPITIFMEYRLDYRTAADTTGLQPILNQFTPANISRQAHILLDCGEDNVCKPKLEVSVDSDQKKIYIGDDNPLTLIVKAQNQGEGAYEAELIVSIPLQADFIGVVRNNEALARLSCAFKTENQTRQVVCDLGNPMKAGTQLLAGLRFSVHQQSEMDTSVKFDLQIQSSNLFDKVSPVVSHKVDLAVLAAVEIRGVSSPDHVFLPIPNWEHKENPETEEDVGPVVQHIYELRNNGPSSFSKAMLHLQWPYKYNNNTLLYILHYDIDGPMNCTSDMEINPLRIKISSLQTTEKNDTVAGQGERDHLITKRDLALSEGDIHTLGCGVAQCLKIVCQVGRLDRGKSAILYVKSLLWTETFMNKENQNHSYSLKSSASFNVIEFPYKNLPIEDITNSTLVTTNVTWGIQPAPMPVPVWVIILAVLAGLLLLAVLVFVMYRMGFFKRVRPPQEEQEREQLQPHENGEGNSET
T2 chain 2: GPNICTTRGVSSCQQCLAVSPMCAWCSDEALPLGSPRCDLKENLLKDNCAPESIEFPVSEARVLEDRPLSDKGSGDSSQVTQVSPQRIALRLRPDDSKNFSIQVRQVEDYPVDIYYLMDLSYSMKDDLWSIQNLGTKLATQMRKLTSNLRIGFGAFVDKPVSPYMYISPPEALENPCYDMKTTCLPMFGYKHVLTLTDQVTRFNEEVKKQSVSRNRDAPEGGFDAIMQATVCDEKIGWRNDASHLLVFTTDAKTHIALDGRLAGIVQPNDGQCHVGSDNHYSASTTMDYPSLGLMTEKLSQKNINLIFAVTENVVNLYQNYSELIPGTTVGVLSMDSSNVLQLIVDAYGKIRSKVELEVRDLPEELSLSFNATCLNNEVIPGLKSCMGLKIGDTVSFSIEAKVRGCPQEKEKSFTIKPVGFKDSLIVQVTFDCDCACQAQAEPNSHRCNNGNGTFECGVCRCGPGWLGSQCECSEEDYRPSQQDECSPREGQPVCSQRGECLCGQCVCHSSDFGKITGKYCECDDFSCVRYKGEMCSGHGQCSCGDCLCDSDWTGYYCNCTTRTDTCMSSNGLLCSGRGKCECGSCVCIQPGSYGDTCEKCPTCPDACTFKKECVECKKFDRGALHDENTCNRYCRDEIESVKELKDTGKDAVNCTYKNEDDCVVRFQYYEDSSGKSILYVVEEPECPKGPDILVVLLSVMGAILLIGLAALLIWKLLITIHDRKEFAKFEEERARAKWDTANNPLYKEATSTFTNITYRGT

αvβ3 integrin [13] = target: T1, αvβ3 integrin; experiment: as above; remark: listed apart in the source
αvβ3 integrin [14] = target: T1, αvβ3 integrin; experiment: as above; remark: listed apart in the source

- IC50 (αvβ3 integrin [1]): 1000 to 10000 nM
B1: LXW5 (peptide)
peptide: [dC]GRGD[dD][dS][dC]-NH2
modifications: disulfide 1-8; N-terminus assumed
SMILES: N=C(N)NCCC[C@@H]1NC(=O)CNC(=O)[C@H](N)CSSC[C@H](C(N)=O)NC(=O)[C@@H](CO)NC(=O)[C@@H](CC(=O)O)NC(=O)[C@H](CC(=O)O)NC(=O)CNC1=O

- IC50 (αvβ3 integrin [2]): < 1000 nM
- IC50 (αvβ3 integrin [3]): 590 nM
- IC50 (αvβ3 integrin [4]): 680 nM
B2: LXW7 (peptide)
peptide: [dC]GRGD[dD][dV][dC]-NH2
modifications: disulfide 1-8; N-terminus assumed
SMILES: CC(C)[C@H]1NC(=O)[C@@H](CC(=O)O)NC(=O)[C@H](CC(=O)O)NC(=O)CNC(=O)[C@H](CCCNC(=N)N)NC(=O)CNC(=O)[C@H](N)CSSC[C@H](C(N)=O)NC1=O

- IC50 (αvβ3 integrin [1]): 1000 to 10000 nM
B3: LXW2 (peptide)
peptide: [dC]GRGD[dD][dF][dC]-NH2
modifications: disulfide 1-8; N-terminus assumed
SMILES: N=C(N)NCCC[C@@H]1NC(=O)CNC(=O)[C@H](N)CSSC[C@H](C(N)=O)NC(=O)[C@@H](Cc2ccccc2)NC(=O)[C@@H](CC(=O)O)NC(=O)[C@H](CC(=O)O)NC(=O)CNC1=O

- Bmax (αvβ3 integrin [5]): 86 A.U
- Kd (αvβ3 integrin [6]): 72 nM
- Bmax (αvβ3 integrin [7]): 1390 A.U
- Kd (αvβ3 integrin [8]): 76 nM
- Bmax (αvβ3 integrin [9]): 71 A.U
- IC50 (αvβ3 integrin [4]): 620 nM
- Kd (αvβ3 integrin [10]): 89 nM
Binder: [dC]GRGD[dD][dV][dC]-{Ebes-Ebes-K(biotin)-NH2} (disulfide 1-8) [Biotinylated cyclo(cGRGDdvc)]

- IC50 (αvβ3 integrin [11]): > 10000 nM
B4: LXW72 (peptide)
peptide: [dC]GRGD[N(CH2CH2CO)Gly][Pro(5R-Ph)][dC]-NH2
modifications: disulfide 1-8; N-terminus assumed
SMILES: N=C(N)NCCC[C@@H]1NC(=O)CNC(=O)[C@H](N)CSSC[C@H](C(N)=O)NC(=O)[C@@H]2CC[C@H](c3ccccc3)N2C(=O)CN(CCC(=O)O)C(=O)[C@H](CC(=O)O)NC(=O)CNC1=O
notes: also called cGRGD-NGlu-Ppca-c

- IC50 (αvβ3 integrin [11]): > 10000 nM
B5: LXW70 (peptide)
peptide: [dC]GRGD[dCit][Pro(5R-Ph)][dC]-NH2
modifications: disulfide 1-8; N-terminus assumed
SMILES: N=C(N)NCCC[C@@H]1NC(=O)CNC(=O)[C@H](N)CSSC[C@H](C(N)=O)NC(=O)[C@@H]2CC[C@H](c3ccccc3)N2C(=O)[C@@H](CCCNC(N)=O)NC(=O)[C@H](CC(=O)O)NC(=O)CNC1=O

- IC50 [12]: 1370 nM
Binder: cyclo(RGD[dF]K([Suc-Ebes″-Lys(biotin)NH2])) (reading uncertain) [cyclo (RGDfK)-Bio]

- IC50 (αvβ3 integrin [1]): 1000 to 10000 nM
B6: LXW1 (peptide)
peptide: [dC]GRGD[dS][dF][dC]-NH2
modifications: disulfide 1-8; N-terminus assumed
SMILES: N=C(N)NCCC[C@@H]1NC(=O)CNC(=O)[C@H](N)CSSC[C@H](C(N)=O)NC(=O)[C@@H](Cc2ccccc2)NC(=O)[C@@H](CO)NC(=O)[C@H](CC(=O)O)NC(=O)CNC1=O

- IC50 (αvβ3 integrin [2]): < 1000 nM
B7: LXW3 (peptide)
peptide: [dC]GRGD[dS][dE][dC]-NH2
modifications: disulfide 1-8; N-terminus assumed
SMILES: N=C(N)NCCC[C@@H]1NC(=O)CNC(=O)[C@H](N)CSSC[C@H](C(N)=O)NC(=O)[C@@H](CCC(=O)O)NC(=O)[C@@H](CO)NC(=O)[C@H](CC(=O)O)NC(=O)CNC1=O

- IC50 (αvβ3 integrin [11]): > 10000 nM
B8: LXW39 (peptide)
peptide: CGRGD[dD][dAla(4-thiazolyl)]C-NH2
modifications: disulfide 1-8; N-terminus assumed
SMILES: N=C(N)NCCC[C@@H]1NC(=O)CNC(=O)[C@@H](N)CSSC[C@@H](C(N)=O)NC(=O)[C@@H](Cc2cscn2)NC(=O)[C@@H](CC(=O)O)NC(=O)[C@H](CC(=O)O)NC(=O)CNC1=O
notes: also called CGRGDd-DTha-C

- fold decrease in affinity on biotinylation (against the non-biotinylated form) (αvβ3 integrin [13]): 2 to 8 fold
- IC50 (αvβ3 integrin [14]): 4700 nM
Binder: cyclo(RGD[dF]E([Ebes-Ebes-Lys(biotin) amide])) (also called Biotinylated Cyclo(RGDfE)) [cyclo (RGDfE)-Bio]

- IC50 (αvβ3 integrin [14]): 600 nM
B9: cyclo(RGDfE) (peptide)
peptide: cyclo(RGD[dF]E)
SMILES: N=C(N)NCCC[C@@H]1NC(=O)[C@H](CCC(=O)O)NC(=O)[C@@H](Cc2ccccc2)NC(=O)[C@H](CC(=O)O)NC(=O)CNC1=O
